Here are results for 41 sequences from the nanobody polyreactivity screen of Harvey et al. (2022).

The series can be described thus: yeast display, Sf9 membrane polyspecificity reagent, FACS + sequencing; frameworks hold sequencing errors. The gist of the method:
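Galactose-induced (36–48 hours) yeast carrying a synthetic nanobody display library were exposed to 10% biotinylated, detergent-solubilized Sf9 membrane reagent at 4 °C for 1 hour. FACS followed streptavidin microbead enrichment, using low and high (top ~1%) gates for expression (anti-HA) and reagent binding (streptavidin). Colony PCR, MiSeq 2 × 250 sequencing and CDR-length filtering followed. Labels for polyreactivity reflect the gate of origin.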
As to “QVHLVESGGGLVQAGGSLRLSCADSGLTFVFYAMGWYRPAPGKERELVAAISWSTGRTYYPDSVKGRFTISRDTAKNTVYLQMNSLNPEDSAVYYCAASYLGRKYVYWGQGTQVTVSS”, the “polyreactivity (PSR sort gate)” value is listed as “high polyreactivity”.

Take “QVQLVESGGGLVQAGGSLRLICAASGRTLGGNAMGWYRQAPGKERELVAAITNSASTYADSVKGRFTISRDNAKNTVYLQMNSLKPEDTAVYYCNAPDPSDQHGDYWGQGTQVTVSS”: the “polyreactivity (PSR sort gate)” value was “low polyreactivity”.

Consider “QVQLVESGGGLVQAGGSLRLSCAASGSTFYHYAMGWYRQAPGKERELVAAISTGGSTYYADSVKGRFTISRDNAKNTVYLQMNSLKPEDTAVYYCNARYIGGYGYWGQGTQVTVSS”, for which the “polyreactivity (PSR sort gate)” value was “low polyreactivity”.

As to “KVQLVESGVGLDQAGGSHRLSCDASGYIFDDYAMGWYRKAPGKERELVAAISSSGTSTNYADSVKVRFTISRDNAKNTVYLQMNSLKPEDTAVYYCAARSAILKSGYLMDYWGLGTQVTVSS”, the “polyreactivity (PSR sort gate)” value was “low polyreactivity”.

As for “QVQLQVSGGGLVQAGGSLRLSCAASGSIFLTSEMGWYRQAPGKERELVAAIATGTSTNYADSVKGRFTISRDNAKNTVYLQMNSLKPEDTAVYYCATYHYWGQGTQVTVSS”, the “polyreactivity (PSR sort gate)” value is reported as “low polyreactivity”.

Take “QVQLVESGGGLVQAGASLRLSCAASGLTFEYYTMGWYRQAPGKERELVAAITSSGGSTYYADSVKGRFTISRDNAKNTVYLQMNSLKPEDTAVYYCNAYWTYEFPSYDYWGQGTQVTVSS”: the “polyreactivity (PSR sort gate)” value is recorded as “low polyreactivity”.

Turning to “QVQLVESGGGLVQAGGSLRLSCAASGSIFFDYAMGWYRQAPGKERELVAAINSGGTTNYADSVKGRFTISRDNAKNTVYLQMIQPETGRYRGLLLQRLPGYLRWYRWYDYWGQGTQVSVSS”, the “polyreactivity (PSR sort gate)” value is on record as “low polyreactivity”.

With “QVQLVESGGGLVQAGGSLRLSCAASGIIFLGNAMGWYRQAPGKERELVAAITASGTSTYYADSVKGRFTISRDNAKNTVYLQMNSLKPEDTAVYYCAAQSTWYDYYYWGQGTQVTVSS”, the “polyreactivity (PSR sort gate)” value was “low polyreactivity”.

Consider “QVHLVESGGGLVKAGGSLRLSCAASGISFGSNVMGLYRQAPGKERELVAAINYGGGSTYYADSVKGRFTISRDNAKNTVYLQMNSLKPEDTAVYYCAARGSRVYRYDYWGQGTQVTVSS”, for which the “polyreactivity (PSR sort gate)” value is “low polyreactivity”.

Consider “QVQLVESGGGLVQAGGSLRLSCAASGLTSLGNAMGWYRQAPGKERELVAAITRTGTSTYYADSVKGRFTISRDNAKNTVYLQMNSLKPEDTAVYYCAALDRYSTEYKYQLYKQEYDYWGQGTQVTVSS”, for which the “polyreactivity (PSR sort gate)” value is reported as “low polyreactivity”.

Turning to “QVQLVESGGGLVQAGGSLRLSCAASGNIFAYYAMGWYRQAPGKERELVAGISRRGGNTYYADSVKGRFTISRDNAKNTVYLQMNSLKPEDTAVYYCAAKTYSGQRFDYWGQGTQVTVSS”, the “polyreactivity (PSR sort gate)” value is “high polyreactivity”.

Take “QVQLVESGGGLVQAGGSLRLSCAASGRNFYQYGMGWYREAPGKERELVAAISDSGGGTYYADSVKGRFTISGDNAKNTVYLQMNSLKPEDSAVYYCAATYVGPRRRYYYWGQGTQVTVSS”: the “polyreactivity (PSR sort gate)” value is recorded as “high polyreactivity”.

In the case of “QVQLVESGGGLVQAVGSLSLICAASGSTFLKYTMGWYRQAPWKERELVAAISKSGGSTYYADSVKGRFTISRDNAKNTVYLQMNSLKPEDTAVYYCAKGRYWVSSYGYGYWVQGTQVTVSS”, the “polyreactivity (PSR sort gate)” value is “high polyreactivity”.

With “QVQLVESGGGLVQAGGSLRLSCAASGIIFWLYAMGWYRQAPGKERELVAAINWSGSTTYYADSVKGRFTISRDNAKNTVYLQMNSLKPEDTAVYYCAASRVRAYYYTSSLRRYYYWGQGTQVTVSS”, the “polyreactivity (PSR sort gate)” value is listed as “high polyreactivity”.

As for “QVQLVESGGGLVQAGGSLRLSCAASGSIFKGYAMGWYRQAPGKERELVAANTYSGGGTYYADSVKGRFTISRDNAKNTVYLQMKSLKQEDTAVYYCNADRYYPDDLSDGVGTYDYWGQGTQVSVSS”, the “polyreactivity (PSR sort gate)” value is recorded as “low polyreactivity”.

As to “QVQLVESGGGLVQAGGSLRLSCAASGLIFTDYDMGWYRQAPGKERELVAAISTSGGSTYYADSVKGRFTISRDNAKNPVYLQMNSLKPAETAVYYCAAEYVYPYWNGFDYWGQGTQVTVSS”, the “polyreactivity (PSR sort gate)” value is recorded as “low polyreactivity”.

“QVQLVESGGGLVQAGGSLRLSCAASGSTFRLYAMGWYRQAPGKEREFVAAISFRGGSTYYADSVKGRFTISRDNAKNTVYLQMNSLKPEDTAVYYCNARVRVRLGRNWSSYYYWGQGTQVTVSS”: the “polyreactivity (PSR sort gate)” value is “high polyreactivity”.

On to “QVQLVESGGGLVQAGGSLRLSCAASGGIFSWYDMGWYREAPGKERELVAAISWSGGSTYYADSVKGRFTISRDNAKHTVYLQMNSLKPEDTAVYYCAAYTADDYDYWGQGTQVTVSS”, for which the “polyreactivity (PSR sort gate)” value is reported as “high polyreactivity”.

As for “QVQLVESGGGLVQAGGSLRLSCAASGITFEPYAMGWDREAPGKEREFVSDNTWSGGSTYYADSVKSRFTISRDNANNTVYLQMNSLKPEDTAVYYCAADGWTSYWSDYWGQGTQVTVSS”, the “polyreactivity (PSR sort gate)” value is “low polyreactivity”.

With “QFQLVESGGGLVQAGGSLRLSCAASGSIFISNAMGWYRQAPGKERDLVAAISWTSGSTYYADSVKGRFTISRDNAKNTVYLQMNSLKPVDTAFYYCAALGGAALDWGVVEVGYWGKGTQVTVSS”, the “polyreactivity (PSR sort gate)” value is “low polyreactivity”.

“QVQLVESGGGLVQAGGSLRLSCAASGSTFQYYAMGWYRQAPGKERELVAAISDGTNTNYADSVKGRFTISRDNAKNTVYLQMNSLKPEDTAVYYCAARFYSIVKYVGIGTDEYDYWGQGTQVTVSS”: the “polyreactivity (PSR sort gate)” value was “low polyreactivity”.

For “QVQLVESGGGLVQAGGSLRLSCAASGRTFPGYAMGWYRQAPGKEREVVAGISYRGGSTYYADSVKGRFTISRDNPKNTVYLQMNSLKPVDTAVYYCARDYSRHKGDYWGQGTQVTVSS”, the “polyreactivity (PSR sort gate)” value is listed as “low polyreactivity”.

Consider “QVQLVESGGGLVQAGGSLRLSCAASGLTFEVYAMGWYRQARGKERELVAAISSGGGATYYADSVKGRFTISRDNAKNTVYLQMNSLKPEDTAVYYCAAVDPYERYVYWGQGTQVTVSS”, for which the “polyreactivity (PSR sort gate)” value is given as “low polyreactivity”.

As for “QVQLVESGGGLVQAGGSLRLTCAASGITFDLNAKGWYRQAPGKERELVAAIFRGGSTYYADSVKGRFTISRDNAKNTVYLQMNSLKPEDTAVYYCAAAYYRVGRAYPHEAYDYWGQGTQVTVSS”, the “polyreactivity (PSR sort gate)” value is “low polyreactivity”.

Turning to “QVQLVESGGGIVQAGGSLRLSSAASGFTFYYYAIGWYRQAPGKERELVAAISSGGSTYYADSVKGRFTISRDNAKNTVYLQMNSLKPEDTAVYYCAADSLYYRYDYWGQGTQVTVSS”, the “polyreactivity (PSR sort gate)” value is on record as “low polyreactivity”.

As to “QVQLVESGGGLVQAGGSLRLSCPASGRTMGGNAMGWYRQAPGKEREFVARISTRGVRKYYADSVKGRFTISRDNAKNTVYLQMNSLKPEDTAVYYCAKHVSYGHIGAYPDRDSWGQGTQVTVSS”, the “polyreactivity (PSR sort gate)” value is “low polyreactivity”.

In the case of “QVHLVESGGGLVQAGGSLRLSCAASGFLFDVYAMGWYRQAPGKERELVAAISRSGGSTYYADSVKGRFTISRDNAKNTVYLQMNSLKPEDTAVYYCATDLLNNVDYDYWGQGTQVTVSS”, the “polyreactivity (PSR sort gate)” value is “low polyreactivity”.

Consider “QVQLVESGGGLVQAGGSLRLSCAASGSTLNRNVMGSYRQAPGKERELVAVITYGVGSTYYADSVKGRFTISRDNAKNTVYLQLNSLKPEDTAVYYCNKDPLVFDYWGQGTQVTVSS”, for which the “polyreactivity (PSR sort gate)” value is “low polyreactivity”.

Consider “QLQLVESGGGLVQAGGSLRLRCAASGRIFVRYAMGWYRQEPGKERELVAAISTRGGSTYYADSVKGRFTISRDKAKNTVYLQMNSLKAEDTAVYYCASGPRPRPSDYWGQGTQVTGSS”, for which the “polyreactivity (PSR sort gate)” value was “high polyreactivity”.

For the sequence “QVQLVESGGGLVQAGCSLRLSCAASGRIFTSNAMGWYRQAPGTERELVAVISRRGGSTYYADSVKGRFTISRDNAMNTVYLQMNSLKPEDTAVYYCARRPYSYTRYEYWGQGTQVTVSS”, the “polyreactivity (PSR sort gate)” value is on record as “low polyreactivity”.

In the case of “QDQLVESGGGLVQAGGSLRLSCAASVRIFWLYAMGWYRQAPGKERELVAVISWSGGTTYYADSVKGRFTISRDNAKNTVYLQMNSLKPEDTAVYSCAAQVGFYTNYREFDYWGQGTQVTVSS”, the “polyreactivity (PSR sort gate)” value is “low polyreactivity”.

As to “QVQLVESGGGLVQAGGSLRLSCAASGLIFRSNAMGWYRQAPGKERELVAAISRNGQSTYYADSVKGRFTISRDNAKYTVYLQMNSLKPEDTAVFYCAARSRDKYDYWGQGTEVTVSS”, the “polyreactivity (PSR sort gate)” value was “high polyreactivity”.

Regarding “QVQLVESGGGLVQAGGSLRLSCAASGFTFTRYGMGWYRQAPGKERELVAGISSGGSTNYADSVKGRFTISRDNAKNTVYLQRNSLKPEDTAVYYCAARAKRYNVRFDYWGQGTQVTVSS”, the “polyreactivity (PSR sort gate)” value is listed as “high polyreactivity”.

Turning to “QVQLVESGGGLVQAGGSLRLSCAASGPIFWGYAMGWYRQAPGKERELVAAITSGGNTNYADSVKGRFTISRDNAKNTVYLQMISLKPEDTAVSYCAKRTRPWRDFDYWGQGTQVTVSS”, the “polyreactivity (PSR sort gate)” value is on record as “low polyreactivity”.

With “QVQLVESGGGLVQAGGSLRLSCAASGFTLRKYAMGWYRQAPGKEREFVATSSSRAASTYYADSVKGRFTISRDNAQNPVYLQMNSLNQEDTAVYYCNKLSPYRGFYWGQGTQVTVSS”, the “polyreactivity (PSR sort gate)” value is reported as “high polyreactivity”.

“QDQLVESGGGLVQAGGSLRLSCAASGFTFYPYAMGWYRQAAGKERELVASITNGGSTNYADSVKGRFTISRDNAKNTVYLQMNSLKPEDTAVYYCNAAYGFYASRYWYASYDYWGQGTQVTVSS”: the “polyreactivity (PSR sort gate)” value is on record as “low polyreactivity”.

For “QVQLVESGGGLVQAGGSLRLSCAASGFTFGVYAMGWYRQAPGKERELVAAISRSSGRTYYADSVKGRFTISRDNAKNTVYLQMNSLKPEDTAVYYCAARGYTLSYVDMYYWGQGTQVTVSS”, the “polyreactivity (PSR sort gate)” value is listed as “high polyreactivity”.

Consider “QVQLGESGGGLVQAGGSRRLSCAASGLIFASNAMGWYRQAPGKEREFDAAISISGGSTYYADSVKGRFTISRDNAKNTVYLQMNSLKPEDTAVYYCAAKLYTVRRPELDYWGQGTQVTVSS”, for which the “polyreactivity (PSR sort gate)” value is reported as “low polyreactivity”.

As to “QVQLVESGGGLVQAGGSLRLSCAASGSTFRYYAMGWYRQAPGKERELVAGICSGGTTKYADSVKGRFTISRDNAKNTVYLQMNSLKPEDSAVYYCAARFRRTRVTYYYWGQGTQVTVSS”, the “polyreactivity (PSR sort gate)” value is “high polyreactivity”.

In the case of “QVQLVESGGGLVQAGGSLRLSCAASGSIFGSNAMGWYRQSPGKERELVAAISRSGGSTYYADSVKGRFTISRDNAKNTVYLQMNSLKPEDTAVYYCAVVASRSHTETPEYDFWGQVTQVTVSS”, the “polyreactivity (PSR sort gate)” value was “low polyreactivity”.

Regarding “QVQLVESGGGLVQAGGSLRLSCAASGRIFVVYAMGWYRQEPGKERELVAAITGGGRTNYADSVKGRFTISRDNAKNTVYLHMNSLKPEATAVYYCAAGTRSDARRYYYWGQGTQVTVSS”, the “polyreactivity (PSR sort gate)” value is “low polyreactivity”.
